# According to the nanobody polyreactivity screen of Harvey et al. (2022):
# Assay: yeast display, Sf9 membrane polyspecificity reagent, FACS + sequencing; frameworks hold sequencing errors
# Summary of the method: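 Synthetic nanobody libraries on Saccharomyces cerevisiae BJ5465 were galactose-induced for 36–48 hours, stained 1 hour at 4 °C with 10% biotinylated, detergent-solubilized Sf9 membrane reagent and enriched on streptavidin microbeads. FACS then separated cells into low and high (top ~1%) gates by anti-HA (expression) and streptavidin (reagent binding) fluorescence. Genes were colony-PCR amplified, MiSeq 2 × 250 sequenced and CDR-length filtered. A clone's polyreactivity label is that of its gate of origin.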
row,Sequence,polyreactivity (PSR sort gate)
1,QVQLEESGGGLVQAGGSLRLSCAASGSTFVYYARGWYRQAPGKERELVAAITTRGGSTYYADSVKGRFTISRDNAKNTVYLQMNSLKPEDTAVYYCATKWPVYPTGYDYWGQVTQVTVSS,low polyreactivity
2,QVQLEESGGGLVQAGGSLRLSCAASGSTFYTNAMGWYRQAPGKERELVAAISASVGSTYYADSVKGRFTISRDNAKNTVYLQMNSLKPEDTAVYYCAADVWASRRYDYWGQGTQVTVSS,low polyreactivity
3,QVQLEESGGGLVQAGGSLRLSCAASGSTIHDNDMGWYRQAPGKERELVAAISWSGGSTTYADSVKGRFTISRDNAKNTVYLQMNSLKPEDTAVYYCAADWYYWGFIFDYWGQGTQVTVSS,high polyreactivity
4,QVQLEESGGGLVQAGGSLRLSCAASGSTIRYNAMGWSRQAPGKERELVAGISVRGGSTYYADSVKGRFTISRDNAKNTVYLQMNSLKPEDTAVYYCATRSPYSYPNLYYWGQGTQVTVSS,high polyreactivity
5,QVQLEESGGGLVQAGGSLRLSCAASGSTISENTMGWYRQAPGKERELVDAISFSGGSTYYADSVKGRFTISRDIAKNTVFLQMNSLKPEDTAVYYCRRFSSSPKLALGEYDFWGQGTQVTVSS,low polyreactivity
6,QVQLEESGGGLVQAGGSLRLSCAASGSTVGIYAMGWYRPAPGKERELVAAISSRGSTYYADSVKGRFTISRDNAKNTVYLQMNSLKPEDTAVYYCAAGYAWYNYWGQGTQVTVSS,high polyreactivity
7,QVQLEESGGGLVQAGGSLRLSCAASGSTVWANAMGWYRPAPGKERELVAAITSTGITYYADSVKGRFTISRDNAKNTVYLQMNSLTPEDTAVYYCAASFPGAGYGMDYWGQGTQVTVSS,low polyreactivity
8,QVQLEESGGGLVQAGGSLRLSCAASGTILDSNAIGWYRQAPGKERELVAAITSCGSTYYADSVKGRFTISRDNAKNTVYLQMNSLKPEDTAVYYCAAAYLGYVAVQPSYEVGYWGQGTQVTVSS,low polyreactivity
9,QVQLEESGGGLVQAGGSLRLSCAASGYTFGTYTMGWYRQAPGKERELVAGIDSGGTTNYADSVKGRFTISRDNAKNTVYLQMNSLKPEDTAVYYCTAYHLLIFDYYLGLYYYRGNYYWGQGTQVTVSS,low polyreactivity
10,QVQLEESGGGLVQAGGSLRLSCAASVSIFESYAKGWNRQAPGKEREFVAAISDSGADTYYADSVKGRFTISRDNAKNTVYLQMNCLKPEDTAVYYCATDDYFSSYGYFLDGYWGQGTQVTVSS,low polyreactivity
11,QVQLEESGGGLVQAGGSLRLSCAATASIFDYYAMGWYRQAPGKERELVAAISGTGGSTYYADSVMGRFTISRDNAKNTVYLQMNSLKPEDTAVYYCNAARVIRTALRNDGTFDYWGQGTQVTVSS,high polyreactivity
12,QVQLEESGGGLVQAGGSLRLSCADSGITFYLNAMGWYRQAPGKERELVADITVSGGSTYYADSVKGRFTISRDNAKNTVYLEMNSLKPEDTAVYYCAADMTISYSQEYYFWGQGTQVTVSS,low polyreactivity
13,QVQLEESGGGLVQAGGSLRLSCAPSVIIFPAYDMGWYRQAPGKERELVAAIRTSGTSTYYADSVKGRFTISRDNAKNTVYLEMNSLKPDDTAVYYCGAYQAYGGDYWGQGTQVTVSS,high polyreactivity
14,QVQLEESGGGLVQAGGSLRLSCASYGSIFGHYAMGLYRQAPGKARELVAGISKSGGRTYDADSVKGRFTISRDNAKNTVFLQMNSLKPEDTAVYYCNALVTRYQSLDRLGDYWGQGTQVTVSS,high polyreactivity
15,QVQLEESGGGLVQAGGSLRLSCPASGSIFSWNAMGWYRQSPGKERELVATITWNGGRTYYADSVKGRFTISRDNAKNTVYLQMKSLKPEDTAVYYCAARYYVYWTYPNRVLSYYYWGQRTQVTVSS,high polyreactivity
16,QVQLEESGGGLVQAGGSLRLSFAASISSINAMGWYRQAPGKESELVAAIRCSGSSTYYADSVKGRFTISRDNAMITFYLQMNSVKPEDTAVYYCAADTSTGDRGFDYWGHGTQVTVSS,high polyreactivity
17,QVQLEESGGGLVQAGGSLRLSGAASGRTSDGYAMGWYRQAPGKERELVAGITEGGGDTYYADSVKGRFTMSRDTAKNTVYLQMNSLKPEDPALYYCNAVEGSRLPYDYGGQGTQVTVSS,low polyreactivity
18,QVQLEESGGGLVQAGGSLRLSSAASGTISATYAMGWYRQAPGKERELVAAISRNGGSTYYADSVKGRFTISRDNAKNTVYLQMNSLKPEDTAVYYCATSSSKSMYWGQGTQVTVSS,high polyreactivity
19,QVQLEESGGGLVQAGGSLRLTCAACGSIFGPNAMGWYRQAPGKERELVAAIDSSDGSTYYADSVKGRFTISRDNAKNSVYLQMNSLKPEDTAVYYCADELGYIYYSYWWQYDYWGQGTQVTVSS,high polyreactivity
20,QVQLEESGGGLVQAGGSLRLTCAASGFIFDDNAMGWYRQAPGKERELVAAISQGAGRTYYADSVKGRFTISRDNAKNTVYLQMNSLKPEDTAVYYCNSGRPKYWYGSKYDYWGQGTQVTVSS,low polyreactivity

row,Sequence,polyreactivity (PSR sort gate)
1,QVQLEESGGGLVQAGGSLRLTCAASGSILVYNAMGWYRQAPGKERELVAGISSSGTRTYYADSVKGRFTISRDNAKITFYLQMNSLKPEDTAVYYCNALPVRGHQEYDSWGQGTQVNVSS,high polyreactivity
2,QVQLEESGGGLVQAGGSLSLSCAASGSIFSNYAMGWYRQAPGKERELVAAIRISGGSTKYADSVKGRFTISRDNAKNTVYLQMNSLKPEDTAVYYCAAANSKRHRRYNYWGQGTQVTVSS,high polyreactivity
3,QVQLEESGGGLVQAGGSLSVSCAASGSICRNYAMGWYLQAPGKERELVAAISVRGGSTYYADSVKGRFTISRDNAKNTVYLQMHSLKPEDTAGYYCNAVHHDTISDYWGQGTQVTVSS,high polyreactivity
4,QVQLEESGGGLVQAGGTLRLSCAASGGIIVSYAMGWYRPAPRKERELVAAITSGGGTSYADSVKGRFTISRDNAKNTVYLQLNSLKPEDTAVYYCNADGYLAERFVIRLVEFRDYDYWGQGTQVTVSS,low polyreactivity
5,QVQLEESGGGLVQAGGTLRLSCAASVGIFNYYTMGWYREAPGKERELVAAITRGGSTYYADSVKGRFTISRDNAKNTVYLQMNSLKPEDTAVYYCAAVWRRYDKSPLEGSWGQGTQVTLSS,high polyreactivity
6,QVQLEESGGGLVQAGRSLRLSCAASGRIFTYYSMGWYRQAPWKERELVAAISRSGRTYYADSVKGRFTISRDNAKNTVYLQMNILIPEDTAVYYCAAEYYYSWFEYWGQGTQVTVSS,high polyreactivity
7,QVQLEESGGGLVQAGVSLRLSCAASGFTFDRYAMGSYRQAPAKEREMVAALSRSGTSTYYADSVKGRFTISRDNAKYTVYLQMNSLKPEDNAVYYCATRYTVYFPSRLSQYDYWGQGTQVTVSS,high polyreactivity
8,QVQLEESGGGLVQAGVSLRLSCAASGSTFGYYAMGWSRQAPGKERELVAAITSGGTTNYADYVKGRFTISRYNEKNTVYLQMYSLKPEDTAVYYCNAVGTFVRYWTDGRDGVTYDFWGQGTQVTVSS,low polyreactivity
9,QVQLEESGGGLVQEGGSLRLSCSASGRTFRYAMGWYRQAPGKERELVAAISWRGGSTFYADSVKGRFTISRDNAKNTVYLQMNSLKPEDTAVYYCATEFRYHYLSTWSWRYYYWGQGTQVTVSS,low polyreactivity
10,QVQLEESGGGLVQPGGSLRLSCAASGTTIGHNAMGLYREAPGKERELVAAISNSGTRTYYADSVKGRFTISRDNAKNTVYLQMNILKPEDTAVYDCAARYYHIYTKYLQGSDYWGQGTQVTVSS,high polyreactivity
11,QVQLEESGGGLVQSGGSLRLSCAASGRTFSGYAMGSYRQAPGKERELVSAISFSGGSTYYADSVKGRFTISRDNAMNTVYLQMNSLIPEDTAVYYCNAYSWYNGIGNYDYWGQGTQVTVSS,low polyreactivity
12,QVQLEESGGGVVQAGGSLRLSCAASGRTFRWYAMGWYRQAPGKERELVATINSGGTTNYADSVKGRFTISRDNAKNTVYLQMNSLKPEDTAVYYCAATNRGPGHDYWGQGTQVTVSS,low polyreactivity
13,QVQLEESGGGVVQAGGSLRLSCAASGSTFLQYAMGWYRQATGKERELVAAISWRAGSTYYADSVKGRFTISRDTAQNTVYLQMNSLKPEDTAVYYCAADRNGWRYELDDYDYWGQGTQVTVSS,low polyreactivity
14,QVQLEESGGRLVQAGGSLRLSCAASGRILRRYTMGWYRQAPGKETELVAAISSGGNTYYADSVKGRFTISRDNAKNTVYLQMNSLKPEDTAVDYCAARVRRYWEYDYWGQGTQVTVSS,low polyreactivity
15,QVQLEESGGRLVQAGGSLRLTSAASGGIFSVYAMGWYRQAPGKERQLVASITVSGGSTSYADSVKGRFTISRDNAKNTVYLQMKSLKPEDTAVYYCAVYQYVGYTMDYWGQGTKVTVSS,low polyreactivity
16,QVQLEESGRGLVQAGGSLRISCAASGRTYTYYALGWYRQAPGKERELVAAISQSGGSTYYADSVKGRFTISRDNAKNTVYLQMNSLKPEDTAVYYCASVWRTRWAPGYYWGQGTQVTVSS,high polyreactivity
17,QVQLEESGVGLVQAGGSLRLSCAASGSIFPAYAMGSYRQAPGKERELLAAITFSGGRTYYADSVKGRLTISRDNAKNTFYLQMNSLKPEDTAVYYCAAYGAPSGTGAKYGYWGQGTQVTVSS,low polyreactivity
18,QVQLEESGVGVVLAGGSRSLSCAASGRIFQYNAMGWNRQAPGKERELVAAISYRGGSTYYADSVKGRFTISRDNAKYTVYLQLNSLKPEDTAVYYCAVEYPVYYYVEYDYWGQGTQVTVSS,high polyreactivity
19,QVQLEESRGGLVQAGGSLRLSCAASGSIFGYNTMGWYRQAPRKERELVAAISKSGGSTYYADSEKGRFTLSRDTEKNTVYLQMNSLKLEDTAVYYCATYAKQLSPYYYWGQGIQVTVSS,high polyreactivity
20,QVQLEESRGGLVQAGGSLRLSCAASGSTFVINDMGWYRQAPGKETELVAAISKSGGRTYYADSVKGRFTISRDNATNTVYLQMNSLKPEDTAVYYCAAVSQRTRYGYWGQGTQVTVSS,high polyreactivity
